From US20160010082A1

Target: YPet-Mona
Experiment: flow cytometry of E. coli displaying the construct, 50 nM YPet-Mona; 30 minutes of expression; reference CPX display

Chain of YPet-Mona (O89100 263-322): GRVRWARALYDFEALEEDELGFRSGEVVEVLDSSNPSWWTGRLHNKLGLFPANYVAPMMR

B1: eCPX displaying the P2 peptide at the C-terminus (protein)
chain: GQSGQGGQSGQSGDYNKNQYYGITAGPAYRINDWASIYGVVGVGYGKFQTTEYPTYKHDTSDYGFSYGAGLQFNPMENVALDFSYEQSRIRSVDVGTWILSVGYRFGSKSRRATSTVTGGYAQSDAQGQMNKMGGFNLKYRYEEDNSPLGVIGSFTYTEKSRTASGGQSGQPAPSIDRSTKPPL
fold improved display level compared to CPX: 9 fold
